Laboratory results as given in patent US20260103541A1 (UNIVERSIT T Z RICH, published 2026).

What was measured:
[1] = target: T1, mouse FAP on cells (mouse, UniProt P97321 1-761); assay: cell-based binding assay
T1 construct: also called murine FAP; mFAP
T1 sequence: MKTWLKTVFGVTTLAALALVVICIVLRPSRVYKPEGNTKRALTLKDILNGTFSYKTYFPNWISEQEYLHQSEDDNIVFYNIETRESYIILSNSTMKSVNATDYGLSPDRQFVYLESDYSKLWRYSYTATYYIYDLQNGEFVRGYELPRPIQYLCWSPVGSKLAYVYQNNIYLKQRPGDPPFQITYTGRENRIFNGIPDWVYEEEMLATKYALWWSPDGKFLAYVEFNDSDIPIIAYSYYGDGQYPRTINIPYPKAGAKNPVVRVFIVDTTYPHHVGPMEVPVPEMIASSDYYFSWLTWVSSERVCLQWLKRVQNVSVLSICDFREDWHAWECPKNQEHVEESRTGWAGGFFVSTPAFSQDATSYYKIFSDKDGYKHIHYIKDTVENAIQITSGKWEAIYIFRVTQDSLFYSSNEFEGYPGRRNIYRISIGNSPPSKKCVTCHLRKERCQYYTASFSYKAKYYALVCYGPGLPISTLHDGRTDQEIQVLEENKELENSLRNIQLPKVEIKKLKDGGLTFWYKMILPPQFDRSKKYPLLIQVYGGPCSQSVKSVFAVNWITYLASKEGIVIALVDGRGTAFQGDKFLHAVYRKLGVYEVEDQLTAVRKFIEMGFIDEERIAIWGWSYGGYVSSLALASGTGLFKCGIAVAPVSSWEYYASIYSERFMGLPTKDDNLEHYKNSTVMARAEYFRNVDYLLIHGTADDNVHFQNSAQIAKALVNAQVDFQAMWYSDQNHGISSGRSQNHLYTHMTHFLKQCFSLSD

[2] = target: T2, recombinant mouse FAP (R&D Systems) (mouse, UniProt P97321 26-761); assay: ELISA, recombinant mouse FAP coated, 100 nM DARPin, anti-FLAG detection
T2 construct: also called Recombinant mFAP
T2 sequence: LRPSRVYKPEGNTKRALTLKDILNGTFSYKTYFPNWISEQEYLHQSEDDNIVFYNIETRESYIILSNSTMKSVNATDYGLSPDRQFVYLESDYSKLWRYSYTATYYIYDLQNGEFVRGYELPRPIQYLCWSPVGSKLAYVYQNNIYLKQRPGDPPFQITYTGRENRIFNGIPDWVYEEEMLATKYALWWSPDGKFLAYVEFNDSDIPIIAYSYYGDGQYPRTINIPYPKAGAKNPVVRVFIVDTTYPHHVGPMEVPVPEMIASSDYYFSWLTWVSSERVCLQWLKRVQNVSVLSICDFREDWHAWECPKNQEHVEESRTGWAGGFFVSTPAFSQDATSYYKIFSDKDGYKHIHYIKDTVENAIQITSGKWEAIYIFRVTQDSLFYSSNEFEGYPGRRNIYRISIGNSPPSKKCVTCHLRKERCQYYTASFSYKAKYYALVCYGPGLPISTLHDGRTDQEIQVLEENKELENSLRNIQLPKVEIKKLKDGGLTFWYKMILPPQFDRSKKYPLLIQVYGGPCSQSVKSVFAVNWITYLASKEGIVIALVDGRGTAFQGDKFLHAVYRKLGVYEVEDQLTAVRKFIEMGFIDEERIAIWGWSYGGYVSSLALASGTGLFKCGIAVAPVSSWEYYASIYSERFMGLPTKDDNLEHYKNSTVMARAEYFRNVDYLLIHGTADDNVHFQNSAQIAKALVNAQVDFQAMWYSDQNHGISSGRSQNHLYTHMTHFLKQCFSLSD
Procedure: Recombinant mFAP (R&D Systems), and recombinant maltose-binding protein (MBP; inhouse production) for a positive control, were used for a DARPin binding analysis via ELISA. Target protein was coated overnight (O/N) at 4° C. on MaxiSorp™ 96-well plates (Nunc). Blocking was performed for 2 h at RT using ELISA-blocking buffer (PBS containing 0.5% (w/v) BSA). Plates were washed with ELISA-PBS-T (PBS containing 0.05% (v/v) Tween 20). Samples were diluted (100 nM DARPin concentration) in ELISA-PBS-TB (ELISA PBS T containing 0.5% (w/v) BSA) and incubated for 1 h at 4° C. while shaking. DARPin detection was performed with rabbit anti-FLAG antibody (GenScript, A01868; 1:5,000) and goat anti-rabbit-AP antibody (Sigma Aldrich, A3687; 1:10,000), both diluted in ELISA-PBS-TB and incubated for 1 h at 4° C. while shaking. Substrate solution consisting of 3 mM p-nitrophenyl phosphate (pNPP) diluted in pNPP buffer (50 mM NaHCO₃, 50 mM MgCl₂) was used for final detection. A Tecan Infinite M1000 plate reader (Tecan) was used to measure the absorbance at 405 nm.

[3] = target: T3, human FAP (fibroblast activation protein) on HT1080hFAP cells (human, UniProt Q12884 1-760); assay: flow cytometry cell-based binding assay, HT1080hFAP against FAP-negative HT1080 cells
T3 construct: also called seprase
T3 sequence: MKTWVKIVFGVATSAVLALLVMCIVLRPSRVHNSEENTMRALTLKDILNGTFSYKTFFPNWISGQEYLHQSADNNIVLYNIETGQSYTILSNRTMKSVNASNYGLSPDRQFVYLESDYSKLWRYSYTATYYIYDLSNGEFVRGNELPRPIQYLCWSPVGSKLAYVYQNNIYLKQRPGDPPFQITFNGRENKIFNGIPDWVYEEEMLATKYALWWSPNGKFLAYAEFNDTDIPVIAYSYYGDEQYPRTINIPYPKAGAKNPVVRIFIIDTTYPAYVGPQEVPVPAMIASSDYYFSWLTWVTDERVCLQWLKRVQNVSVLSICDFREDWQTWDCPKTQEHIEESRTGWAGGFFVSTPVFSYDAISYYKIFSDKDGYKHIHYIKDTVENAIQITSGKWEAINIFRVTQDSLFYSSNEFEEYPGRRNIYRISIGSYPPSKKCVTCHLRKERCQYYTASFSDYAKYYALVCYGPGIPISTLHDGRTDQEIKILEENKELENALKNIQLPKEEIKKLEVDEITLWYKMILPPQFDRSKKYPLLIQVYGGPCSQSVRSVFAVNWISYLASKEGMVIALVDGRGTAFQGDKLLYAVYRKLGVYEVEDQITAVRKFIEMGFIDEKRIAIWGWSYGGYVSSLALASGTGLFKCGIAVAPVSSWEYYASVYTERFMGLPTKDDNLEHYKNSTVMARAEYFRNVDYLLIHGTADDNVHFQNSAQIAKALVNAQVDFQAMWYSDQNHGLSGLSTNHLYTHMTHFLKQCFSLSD

Measured: binding result

B1: DARPin #6 (designed binder)
chain: DLGKKLLEAARAGQDDEVRILMANGADVNASDNWGRTPLHVAAQRGHLEIVDVLLAHGADDNASNRWGSTPLHVAAYTGHLEIVDVLLANGADVNASTANGETPLHAAAHAGHLEIVDVLLKHGADVNAQDKFGKTPFDLAIDNGNEDIAEVLQ
notes: also called designed ankyrin repeat domain #6; not shown: N terminal His6 tag; C terminal FLAG tag
binds: [1] | [2] | [3]
